Measurements as given in ChEMBL document CHEMBL2074196, “Drug absorption limited by P-glycoprotein-mediated secretory drug transport in human intestinal epithelial Caco-2 cell layers” (Pharm Res, 1993).

Test system: CC[C@]1(O)C[C@@H]2CN(CCc3c([nH]c4ccccc34)[C@@](C(=O)OC)(c3cc4c(cc3OC)N(C)[C@H]3[C@@](O)(C(=O)OC)[C@H](OC(C)=O)[C@]5(CC)C=CCN6CC[C@]43[C@@H]65)C2)C1
Test: TP_TRANSPORTER: transepithelial transport (basal to apical) in Caco-2 cells
Format: functional, cell-based

“ATP-dependent translocase ABCB1 (Homo sapiens)” showed a Km of 19 µM.
